Source: paper PMC7337899, “E. coli Rep helicase and RecA recombinase unwind G4 DNA and are important for resistance to G4-stabilizing ligands” (Nucleic Acids Research, 2020)

Substrate: Nc1ncnc2c1ncn2[C@@H]1O[C@H](COP(=O)(O)OP(=O)(O)OP(=O)(O)O)[C@@H](O)[C@H]1O
Assay: purified protein
Type: biochemical, Escherichia coli
Conditions: non-parallel (TTAGGG)4-T15 G4 DNA, 100 nM protein, 1 μM to 2 mM ATP, 50 mM KCl, 3 mM MgCl2, pH 7.5, ~23 °C

B1: UvrD (Escherichia coli K-12) (protein)
chain: MDVSYLLDSLNDKQREAVAAPRSNLLVLAGAGSGKTRVLVHRIAWLMSVENCSPYSIMAVTFTNKAAAEMRHRIGQLMGTSQGGMWVGTFHGLAHRLLRAHHMDANLPQDFQILDSEDQLRLLKRLIKAMNLDEKQWPPRQAMWYINSQKDEGLRPHHIQSYGNPVEQTWQKVYQAYQEACDRAGLVDFAELLLRAHELWLNKPHILQHYRERFTNILVDEFQDTNNIQYAWIRLLAGDTGKVMIVGDDDQSIYGWRGAQVENIQRFLNDFPGAETIRLEQNYRSTSNILSAANALIENNNGRLGKKLWTDGADGEPISLYCAFNELDEARFVVNRIKTWQDNGGALAECAILYRSNAQSRVLEEALLQASMPYRIYGGMRFFERQEIKDALSYLRLIANRNDDAAFERVVNTPTRGIGDRTLDVVRQTSRDRQLTLWQACRELLQEKALAGRAASALQRFMELIDALAQETADMPLHVQTDRVIKDSGLRTMYEQEKGEKGQTRIENLEELVTATRQFSYNEEDEDLMPLQAFLSHAALEAGEGQADTWQDAVQLMTLHSAKGLEFPQVFIVGMEEGMFPSQMSLDEGGRLEEERRLAYVGVTRAMQKLTLTYAETRRLYGKEVYHRPSRFIGELPEECVEEVRLRATVSRPVSHQRMGTPMVENDSGYKLGQRVRHAKFGEGTIVNMEGSGEHSRLQVAFQGQGIKWLVAAYARLESV
notes: expressed in E. coli BL21(DE3) pLysS; Polymin P, ammonium sulfate, heparin and Sephacryl S-300 purification; no tag mentioned
B1 was tested, and the Km was 42.52 ± 13.8 µM.
